Source: the nanobody polyreactivity screen of Harvey et al. (2022)

Assay: yeast display, Sf9 membrane polyspecificity reagent, FACS + sequencing; frameworks hold sequencing errors
Method in brief: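 A synthetic nanobody library was expressed on Saccharomyces cerevisiae BJ5465 by galactose induction for 36–48 hours. The library was stained for 1 hour at 4 °C with 10% biotinylated, detergent-solubilized Sf9 membrane reagent and enriched with streptavidin microbeads before FACS. Low and high (top ~1%) gates were set on anti-HA fluorescence for expression and streptavidin fluorescence for reagent binding, and each polyreactivity label reflects the gate of origin.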

Sequence | polyreactivity (PSR sort gate)
QVQLVESGGGLVQAGGSLRLSCAASGSTFVLNAMGWDRQAPGKERELVAAITRDGRTYYADSVKGRFTISRDNAKNTVYLQMNSLKPEDTAVYYCARPARYSYGDGYWGQGTQVTVSS | low polyreactivity
QVQLVESGGGLVQAGGSLRLSCAASGSTFVLNAMGWYRQAPGKERELVAAISSGGRTYYADSVKGRFTISRDNAKNTVYLQMNSLKPEDTAVYYCAAKPYRGGHRTLFGYWGQGTQVTVSS | high polyreactivity
QVQLVESGGGLVQAGGSLRLSCAASGSTFVLYAMGWYRQAPGKERELVATISSGGSTYYADSVKGRFTISRDNAKNTVYLQMNRLKPEDTAVYYCAASYSRFVDWIGDPGYDYWGQGTQVTVSS | low polyreactivity
QVQLVESGGGLVQAGGSLRLSCAASGSTFVNNAMGWYRQAPGTERELVAAIRSSDGRTYYADSVKGRFTISRDNAKNTVYLQMNSLKPEDTAVYYCATAVGTKYRTRIFEYYYWGQGTQVTVSS | high polyreactivity
QVQLVESGGGLVQAGGSLRLSCAASGSTFVPNAMGWYRQAPGKEREFVAAIRVSGDNTYYADSVKGRFTISRDNAKNTVYLQMNSLKPEDTAVYYCAATGTVLGSVDYWGQGTQVTVSS | low polyreactivity
QVQLVESGGGLVQAGGSLRLSCAASGSTFVRNAMGWYRQAPGKERELVAAISRSGGRTYYADSVKGRFTISRDNAKNTVYLQMNSLKPEDTAVYYCAADVYDAGVRYDYWGQGTQVTVSS | high polyreactivity
QVQLVESGGGLVQAGGSLRLSCAASGSTFVRNAMGWYRQAPGKERELVAGISTGDNTYYADSVKGRFTISRDNAKNTVNLQMNSLKPEDTAVYYCAARGLPSNYYYYVHGYIMDYWGQGTQVTVSS | low polyreactivity
QVQLVESGGGLVQAGGSLRLSCAASGSTFVRYAMGWYRQAPGKERELVAAITWSGGITYYADSVKGRFTISRDNAKNTVYLQMNSLKPEDTAVYYCNAEQKQYEKSYDYWGQGTQVTVSS | low polyreactivity
QVQLVESGGGLVQAGGSLRLSCAASGSTFVSNAMGWSRQAPGKERELVAAITRRGGSTYYADSVKGRFTISRDNAKNTVYLQMNSLKPEDTAVYYCAAYSTLTPAYEYWGQGTQVTVSS | high polyreactivity
QVQLVESGGGLVQAGGSLRLSCAASGSTFVSNVMGWYRQAPGKERELVAAITSGGSTYYADSVKGRFTISRDNAKNTVYLQMNSLKPEDTAVYYCAAGGRWARWLFPSRYDYWGQGTQVTVSS | low polyreactivity
QVQLVESGGGLVQAGGSLRLSCAASGSTFVTNAMVWYRQAPGKEREFVAAIRWSAGNTYYADSVKGRFTISRDNAKNTVFLQMNSLKPEDTAVYYCAADIYEQRSTYYAEYYSWGQGTQVTVSS | low polyreactivity
QVQLVESGGGLVQAGGSLRLSCAASGSTFVTNGMGWYRQAPGKERELVAAISGNVGSTYYADSVKGRFTISRDNAKNTVYLQMNSLKPEDTAVYYCAARQYRPSDYDYWGQGTQVTVSS | low polyreactivity
QVQLVESGGGLVQAGGSLRLSCAASGSTFVTNVMGSYRQAPGKERELVAAISYSGGNTYYEDSVKGRFTISRDNSKNTVYLQRNSLNPEDTAVYYCDASYKQFKKMGYWGQGTQVTVSS | high polyreactivity
QVQLVESGGGLVQAGGSLRLSCAASGSTFVTYTMGWYRQAPGKERELVAAISWSGDTTYADSVKGRFTISRDNAKNTVYLQMNSLKPVDTAVYYCAADDDWSGVEFDYLGQGTQVTVSS | low polyreactivity
QVQLVESGGGLVQAGGSLRLSCAASGSTFVVNTMGRYRQAPGKERELVAAISTGSSTYADSVKGRFTISRDNAKNTVYLQMNSLKPEDTAVYYCNTAFPGKYDYWGQGTQVTVSS | low polyreactivity
QVQLVESGGGLVQAGGSLRLSCAASGSTFVVYAMGWYRQAPGKERELVAAIDLSVGDTYYADSVKGRFTISRDNAKNTVYLQMNSLKPEDTAVYYCAAEFYSYKYPDYDYWGQGTQVTVSS | low polyreactivity
QVQLVESGGGLVQAGGSLRLSCAASGSTFVWNAMGWYRQAPGKERELVASISSSGDRTYYADSVKGRFTISRDNAKNTVYLQMNSLKPEDTAVYYCAARYTRADYDYLGQGTQVTVSS | high polyreactivity
